# Measurements published in the supplement of paper PMC10567573.
# B1: EHMT1 (parent)
# chain: FHKDCASRVNNASYCPHCGEESSK
# Variants of: B1
# Experiment: protein stability index of a GFP-peptide fusion (GPS, HEK-293T) (PSI 1-6); higher = more stable
# Conditions: c terminus: a fixed tail appended
# 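Also: lentivirally expressed fusions sorted by FACS into six bins by GFP to DsRed ratio, PSI derived from sequencing read proportions per bin multiplied by bin number.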
row,Variant,protein stability index
1,FHKDCASRVNNDSYCPHCGEESSK,4.27
2,FHKDCASRVNNNSYCPHCGEESSK,3.37
3,FHKDCASRVNNCSYCPHCGEESSK,3.35
4,FHKDCASRVNNYSYCPHCGEESSK,2.85
5,FHKDCASRVNNRSYCPHCGEESSK,3.33
6,FHKDCASRVNNKSYCPHCGEESSK,3.36
7,FHKDCASRVNNISYCPHCGEESSK,2.95
8,FHKDCASRVNNTSYCPHCGEESSK,3.31
9,FHKDCASRVNNFSYCPHCGEESSK,2.48
10,FHKDCASRVNNGSYCPHCGEESSK,4.34
11,FHKDCASRVNNHSYCPHCGEESSK,3.22
12,FHKDCASRVNNLSYCPHCGEESSK,3.06
13,FHKDCASRVNNESYCPHCGEESSK,3.81
14,FHKDCASRVNNWSYCPHCGEESSK,2.54
15,FHKDCASRVNNPSYCPHCGEESSK,3.25
16,FHKDCASRVNNQSYCPHCGEESSK,3.96
17,FHKDCASRVNNSSYCPHCGEESSK,3.29
18,FHKDCASRVNNMSYCPHCGEESSK,3.24
19,FHKDCASRVNNVSYCPHCGEESSK,3
20,FHKDCASRANNASYCPHCGEESSK,3.47
21,FHKDCASRMNNASYCPHCGEESSK,3.37
22,FHKDCASRYNNASYCPHCGEESSK,3.21
23,FHKDCASRCNNASYCPHCGEESSK,4.31
24,FHKDCASRGNNASYCPHCGEESSK,4.14

row,Variant,protein stability index
1,FHKDCASRQNNASYCPHCGEESSK,3.74
2,FHKDCASRSNNASYCPHCGEESSK,3.79
3,FHKDCASRLNNASYCPHCGEESSK,3.73
4,FHKDCASRNNNASYCPHCGEESSK,3.39
5,FHKDCASRFNNASYCPHCGEESSK,2.92
6,FHKDCASRHNNASYCPHCGEESSK,4.71
7,FHKDCASRTNNASYCPHCGEESSK,3.73
8,FHKDCASRINNASYCPHCGEESSK,3.65
9,FHKDCASRKNNASYCPHCGEESSK,3.66
10,FHKDCASRENNASYCPHCGEESSK,3.87
11,FHKDCASRDNNASYCPHCGEESSK,3.94
12,FHKDCASRRNNASYCPHCGEESSK,3.63
13,FHKDCASRPNNASYCPHCGEESSK,3.84
14,FHKDCASRWNNASYCPHCGEESSK,2.31
15,FHKDCASRVNNASYGPHCGEESSK,3.82
16,FHKDCASRVNNASYNPHCGEESSK,3.88
17,FHKDCASRVNNASYPPHCGEESSK,3.75
18,FHKDCASRVNNASYDPHCGEESSK,3.89
19,FHKDCASRVNNASYLPHCGEESSK,3.45
20,FHKDCASRVNNASYIPHCGEESSK,3.32
21,FHKDCASRVNNASYRPHCGEESSK,3.49
22,FHKDCASRVNNASYSPHCGEESSK,3.55
23,FHKDCASRVNNASYMPHCGEESSK,3.16
24,FHKDCASRVNNASYAPHCGEESSK,3.32

row,Variant,protein stability index
1,FHKDCASRVNNASYVPHCGEESSK,3.67
2,FHKDCASRVNNASYKPHCGEESSK,3.68
3,FHKDCASRVNNASYHPHCGEESSK,3.56
4,FHKDCASRVNNASYWPHCGEESSK,2.08
5,FHKDCASRVNNASYFPHCGEESSK,3.04
6,FHKDCASRVNNASYQPHCGEESSK,3.67
7,FHKDCASRVNNASYEPHCGEESSK,4.22
8,FHKDCASRVNNASYYPHCGEESSK,2.74
9,FHKDCASRVNNASYTPHCGEESSK,3.59
10,FHKDCAGRVNNASYCPHCGEESSK,3.47
11,FHKDCACRVNNASYCPHCGEESSK,4.27
12,FHKDCALRVNNASYCPHCGEESSK,3.44
13,FHKDCANRVNNASYCPHCGEESSK,2.83
14,FHKDCAMRVNNASYCPHCGEESSK,3.54
15,FHKDCATRVNNASYCPHCGEESSK,3.28
16,FHKDCAFRVNNASYCPHCGEESSK,2.16
17,FHKDCAPRVNNASYCPHCGEESSK,2.87
18,FHKDCAYRVNNASYCPHCGEESSK,2.12
19,FHKDCAIRVNNASYCPHCGEESSK,3.54
20,FHKDCARRVNNASYCPHCGEESSK,3.97
21,FHKDCAKRVNNASYCPHCGEESSK,4.04
22,FHKDCAARVNNASYCPHCGEESSK,3.71
23,FHKDCAWRVNNASYCPHCGEESSK,2.76
24,FHKDCAERVNNASYCPHCGEESSK,3.54

row,Variant,protein stability index
1,FHKDCAQRVNNASYCPHCGEESSK,3.23
2,FHKDCADRVNNASYCPHCGEESSK,3.23
3,FHKDCAVRVNNASYCPHCGEESSK,3.72
4,FHKDCAHRVNNASYCPHCGEESSK,4.18
5,FHKDCASRVNNASACPHCGEESSK,3.31
6,FHKDCASRVNNASCCPHCGEESSK,3.66
7,FHKDCASRVNNASFCPHCGEESSK,3.36
8,FHKDCASRVNNASICPHCGEESSK,3.47
9,FHKDCASRVNNASSCPHCGEESSK,3.26
10,FHKDCASRVNNASKCPHCGEESSK,3.59
11,FHKDCASRVNNASWCPHCGEESSK,2.45
12,FHKDCASRVNNASRCPHCGEESSK,3.52
13,FHKDCASRVNNASGCPHCGEESSK,3.38
14,FHKDCASRVNNASTCPHCGEESSK,3.73
15,FHKDCASRVNNASNCPHCGEESSK,3.75
16,FHKDCASRVNNASMCPHCGEESSK,3.59
17,FHKDCASRVNNASQCPHCGEESSK,4
18,FHKDCASRVNNASPCPHCGEESSK,3.9
19,FHKDCASRVNNASVCPHCGEESSK,3.44
20,FHKDCASRVNNASECPHCGEESSK,4.05
21,FHKDCASRVNNASDCPHCGEESSK,3.77
22,FHKDCASRVNNASHCPHCGEESSK,3.47
